Where two headings read alike, the source gives them in different places.
Legend:
Assay in all cases: SPR
[1] = biological target: Human haptoglobin (from pooled human plasma, a mixture of 1-1, 2-1, and 2-2 phenotype) (human) (UniProt P00738)
[2] = biological target: T1, Recombinant human CD163 protein (human, UniProt Q86VB7-1 42-1050)
[3] = biological target: T1, Recombinant human CD163 protein; remark: listed apart in the source

T1 sequence (Q86VB7 42-1050): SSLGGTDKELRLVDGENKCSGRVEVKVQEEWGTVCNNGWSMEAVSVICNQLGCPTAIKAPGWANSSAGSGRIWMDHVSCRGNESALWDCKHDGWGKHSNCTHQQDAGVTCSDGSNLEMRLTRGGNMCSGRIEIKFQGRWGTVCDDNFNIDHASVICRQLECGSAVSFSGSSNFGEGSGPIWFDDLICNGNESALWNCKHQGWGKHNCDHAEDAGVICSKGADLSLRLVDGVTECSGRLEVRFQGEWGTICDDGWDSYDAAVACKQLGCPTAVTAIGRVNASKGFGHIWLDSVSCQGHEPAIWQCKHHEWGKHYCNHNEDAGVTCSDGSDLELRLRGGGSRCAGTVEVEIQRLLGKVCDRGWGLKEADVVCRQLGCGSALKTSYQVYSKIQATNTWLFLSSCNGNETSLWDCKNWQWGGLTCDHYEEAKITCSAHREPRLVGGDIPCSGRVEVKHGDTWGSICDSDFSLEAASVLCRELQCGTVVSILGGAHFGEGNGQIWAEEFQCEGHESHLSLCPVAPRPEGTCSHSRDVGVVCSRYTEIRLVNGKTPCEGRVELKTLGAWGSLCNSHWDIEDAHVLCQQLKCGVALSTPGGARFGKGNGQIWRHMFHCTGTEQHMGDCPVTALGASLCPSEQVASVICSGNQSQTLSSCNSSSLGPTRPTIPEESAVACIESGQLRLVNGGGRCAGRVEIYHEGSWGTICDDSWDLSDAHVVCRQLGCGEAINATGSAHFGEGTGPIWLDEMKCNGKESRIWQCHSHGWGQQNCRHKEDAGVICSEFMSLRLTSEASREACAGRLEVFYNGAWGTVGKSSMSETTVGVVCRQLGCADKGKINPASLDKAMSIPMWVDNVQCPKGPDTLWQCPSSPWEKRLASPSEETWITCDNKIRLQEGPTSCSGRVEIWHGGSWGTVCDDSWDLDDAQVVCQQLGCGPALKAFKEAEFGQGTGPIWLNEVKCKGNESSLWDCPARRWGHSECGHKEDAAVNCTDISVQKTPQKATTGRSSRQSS

Molecule: Recombinant HMGB1 (redox form not stated for the experiment) (from UniProt P09429 1-215) (natural protein)
- Kd [1]: 64 nM

B1: Recombinant HMGB1 (redox form not stated for the experiment) (natural protein, human, UniProt P09429 1-215, looked up)
chain: MGKGDPKKPRGKMSSYAFFVQTCREEHKKKHPDASVNFSEFSKKCSERWKTMSAKEKGKFEDMAKADKARYEREMKTYIPPKGETKKKFKDPNAPKRPPSAFFLFCSEYRPKIKGEHPGLSIGDVAKKLGEMWNNTAADDKQPYEKKAAKLKEKYEKDIAAYRAKGKPDAAKKGVVKAEKSKKKKEEEEDEEDEEDEEEEEDEEDEDEEEDDDDE
- Kd [2]: > 1000 nM

B2: HMGB1 and haptoglobin complexes (1:1 molar ratio) (complex)
chain 1: GKGDPKKPRGKMSSYAFFVQTCREEHKKKHPDASVNFSEFSKKCSERWKTMSAKEKGKFEDMAKADKARYEREMKTYIPPKGETKKKFKDPNAPKRPPSAFFLFCSEYRPKIKGEHPGLSIGDVAKKLGEMWNNTAADDKQPYEKKAAKLKEKYEKDIAAYRAKGKPDAAKKGVVKAEKSKKKKEEEDDEEDEEDEEEEEEEEDEDEEEDDDDE
chain 2: VDSGNDVTDIADDGCPKPPEIAHGYVEHSVRYQCKNYYKLRTEGDGVYTLNDKKQWINKAVGDKLPECEADDGCPKPPEIAHGYVEHSVRYQCKNYYKLRTEGDGVYTLNNEKQWINKAVGDKLPECEAVCGKPKNPANPVQ
chain 3: ILGGHLDAKGSFPWQAKMVSHHNLTTGATLINEQWLLTTAKNLFLNHSENATAKDIAPTLTLYVGKKQLVEIEKVVLHPNYSQVDIGLIKLKQKVSVNERVMPICLPSKDYAEVGRVGYVSGWGRNANFKFTDHLKYVMLPVADQDQCIRHYEGSTVPEKKTPKSPVGVQPILNEHTFCAGMSKYQEDTCYGDAGSAFAVHDLEEDTWYATGILSFDKSCAVAEYGVYVKVTSIQDWVQKTIAEN
- Kd [3]: 130 nM

— paper PMC4902170 (JCI insight, 2016)
